Columns and labels:
[1] = biological target: c-Myc (UniProt P01106); assay: flow cytometry, fixed and permeabilized JEG3 cells, negative control
[2] = biological target: c-Myc (UniProt P01106); assay: flow cytometry, fixed and permeabilized HCT15 cells, negative control
[3] = biological target: c-Myc (UniProt P01106); assay: flow cytometry, fixed and permeabilized HCT116 cells, negative control (row shifted one column to the left)

Chain of UniProt P01106 (P01106 whole entry): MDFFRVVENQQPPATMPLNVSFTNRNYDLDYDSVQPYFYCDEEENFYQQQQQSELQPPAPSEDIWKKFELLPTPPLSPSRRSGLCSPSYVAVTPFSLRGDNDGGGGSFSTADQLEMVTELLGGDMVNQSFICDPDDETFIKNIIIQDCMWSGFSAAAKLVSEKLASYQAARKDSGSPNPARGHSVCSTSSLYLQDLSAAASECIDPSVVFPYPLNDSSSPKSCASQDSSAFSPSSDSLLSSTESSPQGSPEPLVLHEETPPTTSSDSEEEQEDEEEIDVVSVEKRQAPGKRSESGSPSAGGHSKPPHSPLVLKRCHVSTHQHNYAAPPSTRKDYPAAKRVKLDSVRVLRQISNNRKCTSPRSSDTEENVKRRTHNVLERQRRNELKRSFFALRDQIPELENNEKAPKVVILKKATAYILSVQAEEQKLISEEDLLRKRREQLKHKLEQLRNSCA

percentage of positive cells above the flow cytometry threshold [1]: 1.1%
percentage of positive cells above the flow cytometry threshold [2]: 1.6%
percentage of positive cells above the flow cytometry threshold [3]: 1.5%
Substance: non-immunized rabbit immunoglobulins (antibody)

Reference: patent US20050260634A1
